Laboratory results from patent publication US20150037339A1 (Regeneron, published 2015).
Substitutions are numbered along the chain they refer to.

T1: Activin A (human, UniProt P08476 311-426)
T1 construct: Homodimer of two βA subunits; bought from R&D Systems (#338-AC); also called inhibin-βA dimer; human Activin A
T1 sequence: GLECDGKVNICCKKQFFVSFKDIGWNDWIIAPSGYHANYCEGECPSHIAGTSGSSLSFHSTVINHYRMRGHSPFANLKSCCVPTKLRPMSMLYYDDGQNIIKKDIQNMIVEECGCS

T2: Activin A (human, UniProt P08476 311-426)
T2 sequence: T1 sequence

B1: H4H10437P2 (antibody, human IgG4, V domains shown)
VH: EVQLVESGGGLVQPGRSLRLSCAASGFTFDDYAMHWVRQAPGKGLEWVSGISWNSGSIGYADSVKGRFTISRDNAKNSLYLQMNSLRAEDTALYYCAKDIMGNWDYFYGMDVWGQGTTVTVSS
VL: not shown
B2: H2aM10965N (antibody, mouse IgG2a, V domains shown)
VH: RVQLVQSGSEVKKPGASVKVSCRASGYIFTSYDINWVRQATGQGLEWMGWMNPNNGNTAYTQKFQGRVTMTRNTSISTAYMELSSLRSEDTAVYYCARKGLLWFGKLLGYGMDVWGQGTTVTVSS
VL: not shown
B3: H4H10438P2 (antibody, human IgG4, V domains shown)
VH: EVQLVESGGGLVQPGRSLRLSCAASGFTFDDNAMHWVRQPPGKGLEWVSGISWNSGSIGYADSVKGRFTISRDNAKNSLYLQMNSLRAEDTALYYCAKDINDILTGYPLFDYWGQGTLVTVSS
VL: not shown
B4: H4H10424P (antibody, human IgG4, V domains shown)
VH: QVQLVESGGGVVQPGRSLRLSCAASGFTFSSYGMHWVRQAPGKGLEWVAVIWYDGSNKYNADSVKGRFTISRDNSKNTVYLQMNSLRAEDTAVYYCARARNYDILTGYYNLGMDVWGQGTTVTVSS
VL: DIQMTQSPSSLSASVGDRVTITCRASQGIRNDLGWYQQKPGKAPKRLIYAASSLQSGVPSRFSGSGSGTEFTLTISSLQPEDFATYYCLQHNSYPYTFGQGTKLEIK
B5: H4H10433P2 (antibody, human IgG4, V domains shown)
VH: EVQLVESGGGLVQAGRSLRLSCEASGFTFDDYGMHWVRQGPGKGLEWVSGISWNSGNIDYADSVKGRFTISRDNAKTSLYLQMNSLKTDDTALYFCAKDAVGFNWNYFLFDYWGQGTLVTVSS
VL: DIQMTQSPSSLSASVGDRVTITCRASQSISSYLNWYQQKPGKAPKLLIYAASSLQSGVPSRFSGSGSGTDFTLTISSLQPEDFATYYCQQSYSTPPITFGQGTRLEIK
B6: H4H10426P (antibody, human IgG4, V domains shown)
VH: EVQLVESGGNLVQSGRSLRLSCTASGFAFDDFAMHWVRQVPGKGLEWVSGISWNSDTIGYADSVKGRFTISRDNAQNSLFLQMDSLRAEDTALYYCVKDMVRGLIGYYYYGMDVWGQGTTVTVSS
VL: EIVLTQSPAILSLSPGERAILSCRASQSIYTYLSWYQQTPGRAPRLLIYETSSRATGIPARFIGSGSGTDFTLTISSLEPEDFAFYYCQHRSDWPPTFGQGTKLEIK
B7: H4H10437P2 (antibody, human IgG4, V domains shown)
VH: B1 VH
VL: not shown
B8: H2aM10965N (antibody, mouse IgG2a, V domains shown)
VH: B2 VH
VL: not shown
B9: H4H10448P2 (antibody, human IgG4, V domains shown)
VH: QVQLQESGPGLVKPSETLSLTCTVSGGTFSSHFWSWIRQPPGKGLEWIGYIFYTGGTNHNPSLKSRVTISIDTSKNQFSLKLTSVTAADTAVYYCARARSGITFGGVIVPGSFDIWGQGTMVTVSS
VL: not shown
B10: H4H10438P2 (antibody, human IgG4, V domains shown)
VH: B3 VH
VL: not shown
B11: H4H10424P (antibody, human IgG4, V domains shown)
VH: B4 VH
VL: B4 VL
B12: H4H10445P2 (antibody, human IgG4, V domains shown)
VH: QVQLQESGPGLVKPSETLSLICSVSGGSFSSHFWSWIRQPPGKGLEWIGYVLYSGGTNYNPSLKSRVTISVDTSKNQFFLKLSSVTAADTADYYCARAISGITFGGIIVPGSFDIWGQGTMVTVSS
VL: not shown
B13: H4H10447P2 (antibody, human IgG4, V domains shown)
VH: B12 VH with I21T, V51I, L52H, F79S, S83T, I107M, I115V, Q118E
VL: not shown
B14: H4H10426P (antibody, human IgG4, V domains shown)
VH: B6 VH
VL: B6 VL
B15: H4H10452P2 (antibody, human IgG4, V domains shown)
VH: QVQLQESGPGLVKPSETLSLTCTVSGGSFSSHFWNWIRQSPGRGLEWIGYIYYSGGTNYNPSFKSRVTMSVDTSKNQFSLKLSSVTAADTAVFYCARARSGITFGGVLVPGSFDIWGQGTMVTVSS
VL: not shown

Target: T1, Activin A
Assay: SPR, captured mAb, 25C
Procedure: (§1) Antibody-antigen association was monitored for 240 seconds while dissociation in buffer was monitored for 600 seconds. Kinetic association and dissociation rate constants were determined by processing and fitting the data using Scrubber software version 2.0c. Binding equilibrium dissociation constants (KD) and dissociative half-lives (t_{1/2}) were then calculated from the kinetic rate constants as: KD (M)=kd/kₐ and t_{1/2} (min)=[ln 2/(60*kd)]. (NB=no binding observed under the conditions used; NT=not tested).

Activin A-20 nM (RU)	Kd	koff	kon	t1/2	Binder
30 RU	0.134 nM	0.00213 s⁻¹	1.58e+07 M⁻¹ s⁻¹	5 min	B1
76 RU	0.745 nM	0.0011 s⁻¹	1.48e+06 M⁻¹ s⁻¹	10 min	B2
25 RU	0.0492 nM	0.000588 s⁻¹	1.2e+07 M⁻¹ s⁻¹	20 min	B3
82 RU	0.229 nM	0.000719 s⁻¹	3.14e+06 M⁻¹ s⁻¹	16 min	B4
16 RU	0.0406 nM	0.000577 s⁻¹	1.42e+07 M⁻¹ s⁻¹	20 min	B5
23 RU	0.0595 nM	0.0007 s⁻¹	1.18e+07 M⁻¹ s⁻¹	16 min	B6

Target: T1, Activin A
Assay: SPR, captured mAb, 37C
Procedure: as §1

Activin A-20 nM (RU)	Kd	koff	kon	t1/2	Binder
20 RU	0.229 nM	0.00468 s⁻¹	2.04e+07 M⁻¹ s⁻¹	2 min	B1
80 RU	1.77 nM	0.00415 s⁻¹	2.35e+06 M⁻¹ s⁻¹	3 min	B2
18 RU	0.127 nM	0.00238 s⁻¹	1.87e+07 M⁻¹ s⁻¹	5 min	B3
58 RU	0.794 nM	0.00364 s⁻¹	4.59e+06 M⁻¹ s⁻¹	3 min	B4
12 RU	0.0537 nM	0.00107 s⁻¹	2e+07 M⁻¹ s⁻¹	11 min	B5
21 RU	0.123 nM	0.00198 s⁻¹	1.61e+07 M⁻¹ s⁻¹	6 min	B6

Target: T2, Activin A
Assay: cell-based or functional assay

IC50 [M], inhibition of 100 pM Activin A in A204/CAGAx12-Luc Smad2/3-luciferase bioassay	Binder
2.9e-10 M	B7
3.5e-09 M	B8
4.6e-11 M	B9
2.6e-10 M	B10
7.6e-10 M	B11
5.3e-11 M	B12
7.8e-11 M	B13
2.3e-10 M	B14
5.8e-11 M	B15
